Source: patent publication US20220332804A1 (CSL INNOVATION, published 2022)

What was measured:
Assay in all cases: SPR, antibody captured, C2 as analyte;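 further: biacore SPR at 37 °C, anti-C2 mAbs captured via goat anti-human IgG on CM5 chips, double-referenced sensorgrams fit to a 1:1 kinetic or steady-state model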
[1] = target: T1, human C2 D269A (human, UniProt P06681 21-752)
T1 sequence: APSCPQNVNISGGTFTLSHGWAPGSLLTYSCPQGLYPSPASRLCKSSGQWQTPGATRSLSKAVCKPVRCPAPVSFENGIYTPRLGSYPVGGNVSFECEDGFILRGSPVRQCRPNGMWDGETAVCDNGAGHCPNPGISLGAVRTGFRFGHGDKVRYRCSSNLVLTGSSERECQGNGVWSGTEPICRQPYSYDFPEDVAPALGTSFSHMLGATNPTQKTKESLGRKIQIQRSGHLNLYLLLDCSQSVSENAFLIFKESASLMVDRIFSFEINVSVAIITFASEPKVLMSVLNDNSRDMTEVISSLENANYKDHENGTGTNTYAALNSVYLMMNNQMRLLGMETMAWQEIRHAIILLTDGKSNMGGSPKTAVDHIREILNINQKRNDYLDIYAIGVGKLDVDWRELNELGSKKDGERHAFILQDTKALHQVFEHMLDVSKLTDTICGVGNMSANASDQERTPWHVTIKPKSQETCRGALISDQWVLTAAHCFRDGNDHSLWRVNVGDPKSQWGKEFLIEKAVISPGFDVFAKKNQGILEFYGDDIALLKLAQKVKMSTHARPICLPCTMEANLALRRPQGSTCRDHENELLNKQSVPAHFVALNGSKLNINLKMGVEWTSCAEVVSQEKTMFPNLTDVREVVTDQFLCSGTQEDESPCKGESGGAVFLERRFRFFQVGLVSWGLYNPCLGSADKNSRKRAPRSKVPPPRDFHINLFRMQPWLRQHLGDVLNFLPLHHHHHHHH

[2] = target: T2, human C2 H435A (human, UniProt P06681 21-752)
T2 sequence: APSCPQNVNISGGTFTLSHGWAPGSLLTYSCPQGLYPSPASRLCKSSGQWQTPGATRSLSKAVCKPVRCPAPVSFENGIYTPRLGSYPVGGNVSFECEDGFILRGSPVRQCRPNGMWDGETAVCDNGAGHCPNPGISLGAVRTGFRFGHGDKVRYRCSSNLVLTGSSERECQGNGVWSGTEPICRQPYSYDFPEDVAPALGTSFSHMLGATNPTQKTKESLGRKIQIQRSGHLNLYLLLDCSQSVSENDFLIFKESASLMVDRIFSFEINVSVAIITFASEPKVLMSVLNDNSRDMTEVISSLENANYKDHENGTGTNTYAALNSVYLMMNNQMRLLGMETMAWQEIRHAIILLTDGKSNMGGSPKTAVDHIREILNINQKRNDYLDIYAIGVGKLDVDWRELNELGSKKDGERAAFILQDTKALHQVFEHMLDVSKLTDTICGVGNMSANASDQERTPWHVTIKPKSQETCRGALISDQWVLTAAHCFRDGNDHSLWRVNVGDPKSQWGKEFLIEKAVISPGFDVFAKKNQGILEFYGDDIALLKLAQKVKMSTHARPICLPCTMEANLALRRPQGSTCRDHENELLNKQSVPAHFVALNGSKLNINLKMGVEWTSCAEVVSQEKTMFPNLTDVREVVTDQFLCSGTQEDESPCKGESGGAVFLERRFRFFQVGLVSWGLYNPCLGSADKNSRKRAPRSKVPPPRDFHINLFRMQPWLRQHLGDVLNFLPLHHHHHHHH

[3] = target: T3, human C2 S428A (human, UniProt P06681 21-752)
T3 sequence: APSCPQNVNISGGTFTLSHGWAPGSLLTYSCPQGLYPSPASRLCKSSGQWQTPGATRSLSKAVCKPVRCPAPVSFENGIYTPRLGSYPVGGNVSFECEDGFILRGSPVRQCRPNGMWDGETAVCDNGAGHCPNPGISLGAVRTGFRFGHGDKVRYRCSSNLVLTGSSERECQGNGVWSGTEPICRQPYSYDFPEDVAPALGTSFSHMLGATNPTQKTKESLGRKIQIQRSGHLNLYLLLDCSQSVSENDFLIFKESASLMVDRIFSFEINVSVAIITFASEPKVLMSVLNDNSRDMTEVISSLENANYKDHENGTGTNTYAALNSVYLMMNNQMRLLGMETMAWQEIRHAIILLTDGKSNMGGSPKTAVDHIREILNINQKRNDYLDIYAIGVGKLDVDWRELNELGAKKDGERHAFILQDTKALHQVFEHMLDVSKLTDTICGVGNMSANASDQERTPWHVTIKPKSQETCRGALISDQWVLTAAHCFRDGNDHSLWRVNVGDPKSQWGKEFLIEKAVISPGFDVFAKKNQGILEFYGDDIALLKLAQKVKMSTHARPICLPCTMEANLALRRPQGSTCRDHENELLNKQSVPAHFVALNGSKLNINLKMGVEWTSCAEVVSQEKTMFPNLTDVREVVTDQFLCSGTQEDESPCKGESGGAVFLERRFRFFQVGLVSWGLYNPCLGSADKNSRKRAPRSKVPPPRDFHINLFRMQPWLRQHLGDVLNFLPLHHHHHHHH

[4] = target: T4, human C2 S473A (human, UniProt P06681 21-752)
T4 sequence: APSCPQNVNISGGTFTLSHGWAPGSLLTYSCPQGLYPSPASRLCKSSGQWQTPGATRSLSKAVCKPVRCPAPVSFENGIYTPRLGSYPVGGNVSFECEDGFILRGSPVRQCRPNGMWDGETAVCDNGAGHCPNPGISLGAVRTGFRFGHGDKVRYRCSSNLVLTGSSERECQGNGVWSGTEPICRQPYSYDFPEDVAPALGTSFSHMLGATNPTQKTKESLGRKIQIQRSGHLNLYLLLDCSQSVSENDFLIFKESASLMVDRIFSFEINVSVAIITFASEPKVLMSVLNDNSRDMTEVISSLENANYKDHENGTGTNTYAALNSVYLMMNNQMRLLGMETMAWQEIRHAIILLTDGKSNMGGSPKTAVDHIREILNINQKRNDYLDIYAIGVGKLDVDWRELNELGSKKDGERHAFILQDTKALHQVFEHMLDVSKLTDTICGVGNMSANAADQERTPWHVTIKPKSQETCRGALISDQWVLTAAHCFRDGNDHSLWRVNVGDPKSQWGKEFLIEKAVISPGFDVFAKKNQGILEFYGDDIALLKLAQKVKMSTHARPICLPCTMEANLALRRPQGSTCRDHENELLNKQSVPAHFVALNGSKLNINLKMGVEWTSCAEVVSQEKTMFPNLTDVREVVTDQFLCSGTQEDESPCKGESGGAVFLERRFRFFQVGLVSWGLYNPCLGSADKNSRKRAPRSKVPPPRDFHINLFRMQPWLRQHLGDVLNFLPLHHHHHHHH

B1: RF16-226 (antibody, human IgG4 S228P, lambda)
heavy: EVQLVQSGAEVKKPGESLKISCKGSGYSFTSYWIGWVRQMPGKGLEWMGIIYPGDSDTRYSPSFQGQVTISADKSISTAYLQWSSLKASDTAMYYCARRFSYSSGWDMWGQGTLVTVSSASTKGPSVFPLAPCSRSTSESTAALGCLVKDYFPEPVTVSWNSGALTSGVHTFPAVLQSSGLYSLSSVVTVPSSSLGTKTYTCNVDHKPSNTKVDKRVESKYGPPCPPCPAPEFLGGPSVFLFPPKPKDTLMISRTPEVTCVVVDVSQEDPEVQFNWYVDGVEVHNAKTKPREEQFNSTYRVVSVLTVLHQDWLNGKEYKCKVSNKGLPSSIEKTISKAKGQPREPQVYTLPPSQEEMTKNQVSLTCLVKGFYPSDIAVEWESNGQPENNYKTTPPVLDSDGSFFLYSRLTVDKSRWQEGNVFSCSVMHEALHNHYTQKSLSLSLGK
light: SYELTQPPSVSVSPGQTARITCSGDALTSKYVAWYQQKSGLAPLLVIYEDTRRPSGIPAKFSGSSSGSVATLTISGAHGDDEADYYCYSTDASGHQRVFGGGTKLTVLSQPKAAPSVTLFPPSSEELQANKATLVCLISDFYPGAVTVAWKADGSPVKAGVETTKPSKQSNNKYAASSYLSLTPEQWKSHRSYSCQVTHEGSTVEKTVAPTECS
notes: pH-dependent anti-C2 antibody from a phage display library; also called WT
With B1 the Kd [1] was 13.1 nM, the Kd [2] was 24.3 nM and the Kd [3] was 18.8 nM. It also gave a Kd [4] of 14.2 nM.
